# Patent US20140105926A1 (GlaxoSmithKline, published 2014)
# Target: T1, Vitronectin from human plasma (SIGMA-ALDRICH) (human, UniProt P04004 20-478)
# T1 construct: mature; Bought protein from human plasma. 'mature' is inferred from the plasma origin
# Experiment: ELISA: plate coated with fusion protein (10 ug/ml), human plasma vitronectin titrated from 10 ug/ml, detected with peroxidase sheep anti-human vitronectin
# T1 sequence (P04004 20-478): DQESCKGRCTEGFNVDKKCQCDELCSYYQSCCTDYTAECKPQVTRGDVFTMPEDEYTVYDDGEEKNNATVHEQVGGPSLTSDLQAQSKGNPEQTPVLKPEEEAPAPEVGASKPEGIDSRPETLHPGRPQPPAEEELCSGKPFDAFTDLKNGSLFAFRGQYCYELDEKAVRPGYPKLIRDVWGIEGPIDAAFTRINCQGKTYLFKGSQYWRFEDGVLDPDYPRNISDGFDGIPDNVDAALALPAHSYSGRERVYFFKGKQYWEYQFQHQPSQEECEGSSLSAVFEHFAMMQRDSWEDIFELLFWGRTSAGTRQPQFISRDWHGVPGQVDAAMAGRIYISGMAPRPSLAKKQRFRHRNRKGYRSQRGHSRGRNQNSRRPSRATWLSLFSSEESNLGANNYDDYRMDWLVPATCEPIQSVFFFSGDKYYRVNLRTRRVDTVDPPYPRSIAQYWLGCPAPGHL
binder,measurement,value
"purified LVL317 PE-PilA fusion protein (other, also called PE-PilA fusion non His-tagged protein) QIQKAEQNDVKLAPPTDVRSGYIRLVKNVNYYIDSESIWVDNQEPQIVHFDAVVNLDKGLYVYPEPKRYARSVRQYKILNCANYHLTQVRTDFYDEFWGQGLRAAPKKQKKHTLSLTPDTTLYNAAQIICANYGEAFSVDKKGGTKKAAVSELLQASAPYKADVELCVYSTNETTNCTGGKNGIAADITTAKGYVKSVTTSNGAITVKGDGTLANMEYILQATGNAATGVTWTTTCKGTDASLFPANFCGSVTQ",binding result,binds
